The experiment addresses T1, CEP192-WT (residues 507-1065 of human CEP192, C-terminal V5 and 6XHis tags) (human, UniProt Q8TEP8 507-1065).
T1 sequence (looked up): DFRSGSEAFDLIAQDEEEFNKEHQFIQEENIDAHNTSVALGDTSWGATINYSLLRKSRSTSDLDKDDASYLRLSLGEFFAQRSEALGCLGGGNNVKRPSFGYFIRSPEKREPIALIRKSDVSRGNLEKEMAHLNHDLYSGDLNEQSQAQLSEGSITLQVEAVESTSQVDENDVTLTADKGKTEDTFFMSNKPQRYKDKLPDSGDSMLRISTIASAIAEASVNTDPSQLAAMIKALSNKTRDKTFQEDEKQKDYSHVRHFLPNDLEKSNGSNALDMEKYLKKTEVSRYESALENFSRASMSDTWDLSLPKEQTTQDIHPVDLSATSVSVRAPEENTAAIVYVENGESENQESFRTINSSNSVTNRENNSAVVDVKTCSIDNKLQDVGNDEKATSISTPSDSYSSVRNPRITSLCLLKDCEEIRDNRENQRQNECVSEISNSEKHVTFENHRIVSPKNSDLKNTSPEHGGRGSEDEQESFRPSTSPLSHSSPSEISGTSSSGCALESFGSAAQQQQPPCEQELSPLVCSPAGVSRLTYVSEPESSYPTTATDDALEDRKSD
The experiment is described as follows: pull-down.

B1: Human PP1β (type one protein phosphatase, purified) (enzyme, UniProt P62140 1-327, looked up)
chain: MADGELNVDSLITRLLEVRGCRPGKIVQMTEAEVRGLCIKSREIFLSQPILLELEAPLKICGDIHGQYTDLLRLFEYGGFPPEANYLFLGDYVDRGKQSLETICLLLAYKIKYPENFFLLRGNHECASINRIYGFYDECKRRFNIKLWKTFTDCFNCLPIAAIVDEKIFCCHGGLSPDLQSMEQIRRIMRPTDVPDTGLLCDLLWSDPDKDVQGWGENDRGVSFTFGADVVSKFLNRHDLDLICRAHQVVEDGYEFFAKRQLVTLFSAPNYCGEFDNAGGMMSVDETLMCSFQILKPSEKKAKYQYGGLNSGRPVTPPRTANPPKKR
On to B1, for which the binding result is “binds”.
